The source of these data is article PMC4325132 (FEBS Open Bio, 2015).

For assay [1], the target named is mouse cardiac TnI K118C mutation (mouse, UniProt P48787 1-211, K118C). Kind of assay: ELISA.
Assay [2] addresses mouse cardiac TnI A117G mutation (mouse, UniProt P48787 1-211, A117G). Kind of assay: ELISA. (ELISA stands for enzyme-linked immunosorbent assay.)

mouse cardiac TnI A117G mutation, sequence (P48787 whole entry A117G): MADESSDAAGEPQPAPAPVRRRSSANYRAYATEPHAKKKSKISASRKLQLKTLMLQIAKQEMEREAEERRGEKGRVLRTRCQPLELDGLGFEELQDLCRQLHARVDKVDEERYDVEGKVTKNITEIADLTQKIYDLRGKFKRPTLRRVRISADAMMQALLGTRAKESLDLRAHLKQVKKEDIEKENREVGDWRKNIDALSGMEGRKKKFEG
mouse cardiac TnI K118C mutation, sequence (P48787 whole entry K118C): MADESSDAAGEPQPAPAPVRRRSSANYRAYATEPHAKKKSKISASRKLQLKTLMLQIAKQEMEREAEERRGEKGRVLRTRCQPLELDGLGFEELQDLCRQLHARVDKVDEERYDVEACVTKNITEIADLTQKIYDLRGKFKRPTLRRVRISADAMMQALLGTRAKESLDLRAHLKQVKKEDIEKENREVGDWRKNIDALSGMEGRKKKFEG

B1: Chicken fast TnC (natural protein)
chain: not shown
Take B1: the binding result in assay [1] and in assay [2] was “binds” throughout.
